Target: T1, CutR (Mycobacterium sp. strain JC1, UniProt D5G1X9 1-320)
T1 sequence: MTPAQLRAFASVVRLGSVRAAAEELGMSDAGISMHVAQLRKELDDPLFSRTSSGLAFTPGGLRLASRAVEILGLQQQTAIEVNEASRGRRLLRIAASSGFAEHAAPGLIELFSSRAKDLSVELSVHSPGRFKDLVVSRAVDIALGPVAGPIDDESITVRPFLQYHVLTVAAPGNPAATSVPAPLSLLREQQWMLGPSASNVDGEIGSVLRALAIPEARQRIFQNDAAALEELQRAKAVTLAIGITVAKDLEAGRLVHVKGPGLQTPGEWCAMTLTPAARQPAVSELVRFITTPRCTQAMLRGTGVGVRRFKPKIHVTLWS
Assay: EMSA; no CO; 50 mM Tris-HCl pH 8.0, 100 mM NaCl, 40% glycerol, 5 mM DTT, 2 mM EDTA, 4 °C 1 h; 10% native PAGE in 0.5x TBE at 4 °C
Settings: protein: recombinant; tags: C-terminal His6; chain copies: 2; label: 5'-biotin (forward strand); blunt

B1: IR2 (29 bp) (dsDNA)
DNA 1: GGGCCAGTTAAGCGATTCCTTAAGGGGGG
DNA 2: CCCCCCTTAAGGAATCGCTTAACTGGCCC
  binding result: binds

— publication PMC12609908
